Source: the supplement of paper PMC10598134
± gives the standard deviation.

Assay: collision cross section of modified peptide (TIMS, N2, iRT-aligned); higher = larger / more extended gas-phase ion
How it was run: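 On a timsTOF Pro/HT (dda-PASEF, nitrogen, ~2.4 mbar), synthetic peptide pools were analysed after a 120-min nanoflow C18 separation at 60 °C and identified in MaxQuant. Three reference ions served for 1/K0 calibration, with run-wise alignment to the median iRT peptide deviation. Collision cross section comes from the Mason-Schamp equation, using the most abundant feature per charge state averaged over 1–3 technical replicates.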

[1] = charge state: 2, modification: Crotonyl
[2] = charge state: 2, modification: Dimethyl (K)
[3] = charge state: 3, modification: Dimethyl (K)
[4] = charge state: 2, modification: Formyl
[5] = charge state: 2, modification: Glutarylation
[6] = charge state: 3, modification: Glutarylation
[7] = charge state: 2, modification: GlyGly (K)
[8] = charge state: 3, modification: GlyGly (K)
[9] = charge state: 2, modification: Malonyl
[10] = charge state: 2, modification: Methyl (K)
[11] = charge state: 3, modification: Methyl (K)
[12] = charge state: 2, modification: Succinyl
[13] = charge state: 3, modification: Succinyl
[14] = charge state: 2, modification: Trimethyl (K)
[15] = charge state: 3, modification: Trimethyl (K)
[16] = charge state: 2, modification: hydroxyisobutyryl
[17] = charge state: 3, modification: hydroxyisobutyryl
[18] = charge state: 2, modification: Acetyl (K)
[19] = charge state: 2, modification: Butyryl

IINEPTAAAIAYGLDKK [_IINEPTAAAIAYGLDK(Crotonyl)K_]
collision cross section [1]: 463.28 ± 1.3 Å²
collision cross section (charge state: 3, modification: Crotonyl): 561.41 ± 1.2 Å²

IINEPTAAAIAYGLDKK [_IINEPTAAAIAYGLDK(Dimethyl (K))K_]
collision cross section [2]: 490.46 ± 1.8 Å²
collision cross section [3]: 554.13 ± 0.54 Å²

IINEPTAAAIAYGLDKK [_IINEPTAAAIAYGLDK(Formyl)K_]
collision cross section [4]: 458.24 ± 1.2 Å²
collision cross section (charge state: 3, modification: Formyl): 548.84 ± 1.7 Å²

IINEPTAAAIAYGLDKK [_IINEPTAAAIAYGLDK(Gluratylation)K_]
collision cross section [5]: 470.31 ± 1.8 Å²
collision cross section [6]: 565.52 ± 1.3 Å²

IINEPTAAAIAYGLDKK [_IINEPTAAAIAYGLDK(GlyGly (K))K_]
collision cross section [7]: 510.84 ± 1.5 Å²
collision cross section [8]: 560.44 ± 1.9 Å²

IINEPTAAAIAYGLDKK [_IINEPTAAAIAYGLDK(Malonyl)K_]
collision cross section [9]: 458.91 ± 0.99 Å²

IINEPTAAAIAYGLDKK [_IINEPTAAAIAYGLDK(Methyl (K))K_]
collision cross section [10]: 488.76 ± 3.7 Å²
collision cross section [11]: 550.89 ± 0.34 Å²

IINEPTAAAIAYGLDKK [_IINEPTAAAIAYGLDK(Succinyl)K_]
collision cross section [12]: 465.22 ± 1.4 Å²
collision cross section [13]: 564.64 ± 0.073 Å²

IINEPTAAAIAYGLDKK [_IINEPTAAAIAYGLDK(Trimethyl (K))K_]
collision cross section [14]: 500.2 ± 1.5 Å²
collision cross section [15]: 559.85 ± 0.91 Å²

IINEPTAAAIAYGLDKK [_IINEPTAAAIAYGLDK(hydroxyisobutyryl)K_]
collision cross section [16]: 464.51 ± 4.5 Å²
collision cross section [17]: 564.39 ± 3 Å²

IISSIEQKEENK [_IISSIEQK(Acetyl (K))EENK_]
collision cross section [18]: 401.35 ± 0.23 Å²

IISSIEQKEENK [_IISSIEQK(Biotin)EENK_]
collision cross section (charge state: 2, modification: Biotin): 422.44 ± 3 Å²
collision cross section (charge state: 3, modification: Biotin): 481.73 ± 1.6 Å²

IISSIEQKEENK [_IISSIEQK(Butyryl)EENK_]
collision cross section [19]: 408.13 ± 0.85 Å²
collision cross section (charge state: 3, modification: Butyryl): 479 Å²

IISSIEQKEENK [_IISSIEQK(Crotonyl)EENK_]
collision cross section [1]: 407.53 ± 0.9 Å²

IISSIEQKEENK [_IISSIEQK(Dimethyl (K))EENK_]
collision cross section [2]: 410.65 ± 1.1 Å²
collision cross section [3]: 464.23 ± 1.4 Å²

IISSIEQKEENK [_IISSIEQK(Formyl)EENK_]
collision cross section [4]: 398.84 ± 0.2 Å²

IISSIEQKEENK [_IISSIEQK(Gluratylation)EENK_]
collision cross section [5]: 411.03 ± 0.6 Å²
collision cross section [6]: 467.18 ± 1.7 Å²

IISSIEQKEENK [_IISSIEQK(GlyGly (K))EENK_]
collision cross section [7]: 403.29 ± 1.5 Å²
collision cross section [8]: 482.93 Å²

IISSIEQKEENK [_IISSIEQK(Malonyl)EENK_]
collision cross section [9]: 405.63 ± 0.59 Å²

IISSIEQKEENK [_IISSIEQK(Methyl (K))EENK_]
collision cross section [10]: 408.26 ± 2.5 Å²
collision cross section [11]: 450.18 ± 5 Å²

IISSIEQKEENK [_IISSIEQK(Propionyl)EENK_]
collision cross section (charge state: 2, modification: Propionyl): 403.07 ± 0.65 Å²

IISSIEQKEENK [_IISSIEQK(Succinyl)EENK_]
collision cross section [12]: 408.03 ± 0.55 Å²
collision cross section [13]: 479.06 ± 2.5 Å²

IISSIEQKEENK [_IISSIEQK(Trimethyl (K))EENK_]
collision cross section [14]: 411.54 ± 1.1 Å²
collision cross section [15]: 448.49 ± 1.5 Å²

IISSIEQKEENK [_IISSIEQK(hydroxyisobutyryl)EENK_]
collision cross section [16]: 408.38 ± 0.3 Å²
collision cross section [17]: 478.99 ± 4 Å²

ILDLKTGTVK [_ILDLK(Acetyl (K))TGTVK_]
collision cross section [18]: 355.21 ± 0.89 Å²

ILDLKTGTVK [_ILDLK(Butyryl)TGTVK_]
collision cross section [19]: 361.67 ± 1.2 Å²

ILDLKTGTVK [_ILDLK(Crotonyl)TGTVK_]
collision cross section [1]: 360.69 ± 0.88 Å²

ILDLKTGTVK [_ILDLK(Dimethyl (K))TGTVK_]
collision cross section [2]: 355.49 ± 0.51 Å²

ILDLKTGTVK [_ILDLK(Formyl)TGTVK_]
collision cross section [4]: 351.57 ± 1 Å²

ILDLKTGTVK [_ILDLK(Gluratylation)TGTVK_]
collision cross section [5]: 368.56 ± 0.72 Å²

ILDLKTGTVK [_ILDLK(GlyGly (K))TGTVK_]
collision cross section [7]: 373.1 ± 0.25 Å²
collision cross section [8]: 439.15 ± 0.43 Å²

ILDLKTGTVK [_ILDLK(Malonyl)TGTVK_]
collision cross section [9]: 359.66 ± 0.75 Å²

ILDLKTGTVK [_ILDLK(Methyl (K))TGTVK_]
collision cross section [10]: 356.44 ± 1 Å²
